The target in the test is Ty1 nanobody, biotinylated on the C-terminus (alpaca). As to the kind of experiment: BLI; comparative binding test; biotinylated nanobody on streptavidin (SAX) biosensors at about 0.7 nm, dipped into monomeric RBD at 550 nM; 2xPBS with 0.05% Tween-20; Octet RED. A general note: BLI is a label-free optical method that tracks binding on a fibre tip over time.
Chain of Ty1 nanobody, biotinylated on the C-terminus (alpaca) (VHH, as listed by the source): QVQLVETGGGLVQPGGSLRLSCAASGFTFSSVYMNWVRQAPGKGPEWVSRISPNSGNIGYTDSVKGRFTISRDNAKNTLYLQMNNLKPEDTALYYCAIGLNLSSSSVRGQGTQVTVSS

“SARS-CoV-2 spike receptor-binding domain (RBD) (from UniProt P0DTC2 319-541) (domain or fragment)” came in with a BLI response at 550 nM RBD of 1.5 nm.

The record behind these values is publication PMC7473855.
